From patent publication US20130224191A1, “NOTUM PROTEIN MODULATORS AND METHODS OF USE” (priority 2010, published 2013)

B1: murine Notum-His: His tagged murine Notum (protein)
chain: SEGRKTWRRRGQQPPQPPPPPPLPQRAEVEPGAGQPVESFPLDFTAVEGNMDSFMAQVKSLAQSLYPCSAQQLNEDLRLHLLLNTSVTCNDGSPAGYYLKESKGSRRWLLFLEGGWYCFNRENCDSRYSTMRRLMSSKDWPHTRTGTGILSSQPEENPHWWNANMVFIPYCSSDVWSGASPKSDKNEYAFMGSLIIQEVVRELLGKGLSGAKVLLLAGSSAGGTGVLLNVDRVAELLEELGYPSIQVRGLADSGWFLDNKQYRRSDCIDTINCAPTDAIRRGIRYWSGMVPERCQRQFKEGEEWNCFFGYKVYPTLRCPVFVVQWLFDEAQLTVDNVHLTGQPVQEGQWLYIQNLGRELRGTLKDVQASFAPACLSHEIIIRSYWTDVQVKGTSLPRALHCWDRSFHDSHKASKTPMKGCPFHLVDSCPWPHCNPSCPTIRDQFTGQEMNVAQFLMHMGFDVQTVAQQQGMEPSKLLGMLSNGN
modifications: left off: small tags and cut ends
B2: murine Notum-hFc: fusion construct of mouse Notum and human Fc region (protein)
chain: SEGRKTWRRRGQQPPQPPPPPPLPQRAEVEPGAGQPVESFPLDFTAVEGNMDSFMAQVKSLAQSLYPCSAQQLNEDLRLHLLLNTSVTCNDGSPAGYYLKESKGSRRWLLFLEGGWYCFNRENCDSRYSTMRRLMSSKDWPHTRTGTGILSSQPEENPHWWNANMVFIPYCSSDVWSGASPKSDKNEYAFMGSLIIQEVVRELLGKGLSGAKVLLLAGSSAGGTGVLLNVDRVAELLEELGYPSIQVRGLADSGWFLDNKQYRRSDCIDTINCAPTDAIRRGIRYWSGMVPERCQRQFKEGEEWNCFFGYKVYPTLRCPVFVVQWLFDEAQLTVDNVHLTGQPVQEGQWLYIQNLGRELRGTLKDVQASFAPACLSHEIIIRSYWTDVQVKGTSLPRALHCWDRSFHDSHKASKTPMKGCPFHLVDSCPWPHCNPSCPTIRDQFTGQEMNVAQFLMHMGFDVQTVAQQQGMEPSKLLGMLSNGN
modifications: left off: a dimerising Fc or GST
notes: fusion construct of mouse Notum and human Fc region
B3: macaque Notum-hFc: fusion construct of macaque Notum and human Fc region (protein)
chain: SEGRKTWRRRGQQPPPPPRTEAAPAAGQPVESFPLDFTAVEGNMDSFMAQVKSLAQSLYPCSAQQLNEDLRLHLLLNTSVTCNDGSPAGYYLKESRGSRRWLLFLEGGWYCFNRENCDSRYNTMRRLMSSRDWPRTRTGTGILSSQPEENPYWWNANMVFIPYCSSDVWSGASSKSEKNEYAFMGALIIQEVVRELLGRGLSGAKVLLLAGSSAGGTGVLLNVDRVAEQLEELGYPAIQVRGLADSGWFLDNKQYRHTDCVDTITCAPTEAIRRGIRYWNGVVPERCRRQFQEGEEWNCFFGYKIYPTLRCPVFVVQWLFDEAQLTVDNVHLTGQPVQESQRLYIQNLGRELRHTLKDVPASFAPACLSHEIIIRSHWTDVQVKGTSLPRALHCWDRSLHDSHKNSKTPLKGCPVHLVDSCPWPHCNPSCPTVRDQFTGQEMNVAQFLMHMGFDVQTVAQQQGPEPSKLLGL
modifications: left off: a dimerising Fc or GST
notes: fusion construct of macaque Notum and human Fc region

Test system: Wnt3A-mediated induction of luciferase in the 293.TCF cells
Assay: Wnt3A canonical signaling assay, bioactivity of Notum constructs
Type: cell-based, human
Excerpt: To generate a stable population of cells that contain a reporter for the activation of canonical Wnt signaling, HEK 293T cells were transduced with a lentiviral vector, pGreenFirel-TCF (System Biosciences) which encodes a bifunctional GFP and luciferase reporter cassette under the control of a minimal CMV reporter linked to four tandem repeats of the transcriptional response elements for TCF. Transduced cells populations, termed 293.TCF cells, were subsequently used in a Wnt3A canonical signaling assay as follows: 2.5×10^4 293.TCF cells were plated per well of a 96-well tissue culture plate in 50 μL of serum-free DME medium. After 24 hours of serum starvation, 25 μL of various dilutions of conditioned medium (CM) from L/Wnt3A cells (ATCC CRL-2647; Willert, 2003) or undiluted CM from parental L-cells (ATCC CRL-2648) along with 25 μL of DMEM+0.2% FBS were added to each well. Eighteen hours after addition of CM, 100 μL of One-Glo solution (ProMega Corp.) was added to each well. The contents of each well were then mixed thoroughly to lyse the cells, 100 μL of lysate transferred to black 96-well plates, and the luminescence in each well read after 5 mins using a Wallac Victor3 Multilabel Counter (Perkin-Elmer Corp). […] More particularly, as the Wnt3A+ CM media is diluted from 25% down to approximately 3%, activation of the Wnt pathway is reduced with a corresponding decrease in luminescence.
Once the luciferase reporter system was established, assays for determining the bioactivity of various Notum modulators were performed as follows. 2.5×10^4 293.TCF cells were plated per well of a 96-well tissue culture plate in 50 μL of serum-free medium. After 23 hours of serum starvation, 25 μL of DMEM+0.2% FBS containing various Notum modulators at various concentrations (e.g., hNotum-His, hNotum-hFc, hNotum-S232A-His, murine Notum-His, murine Notum-hFc, macaque Notum-hFc, control protein-His or control protein-hFc obtained as per Examples 7, 8 and 13 above), were added to the cells. After 1 hour, 25 μL of Wnt3A or control L-cell CM were added to each well. Eighteen hours after addition of CM, 100 μL of One-Glo solution (ProMega Corp.) was added to each well, the contents of each well mixed thoroughly to lyse the cells, 100 μL of lysate transferred to black 96-well plates, and the luminescence read after 5 minutes.

Molecule | antagonism of Wnt3A-mediated induction of luciferase
B1 | functionally antagonize
B2 | functionally antagonize
B3 | functionally antagonize
